Experimental data reported in patent publication US20210324089A1 (ACCELERON PHARMA, published 2021).

Target: T1, human ALK7-Fc comprising protein (human, UniProt Q8NER5 22-113, limits assumed)
T1 construct: The wording 'ALK7-Fc comprising protein' leaves open whether further chains are present; also called human ALK7-Fe comprising protein; not shown: Fc portion
T1 sequence: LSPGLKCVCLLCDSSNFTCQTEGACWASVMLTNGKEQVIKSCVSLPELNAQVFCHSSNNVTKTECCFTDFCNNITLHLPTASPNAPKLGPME
Experiment: SPR (Biacore T100/T200); antibody captured on FAB chip, ALK7-Fc comprising protein as analyte; 1:1 fit
Experimental: Experiments were performed using a Biacore T100/T200 biosensor (Biacore/GE Healthcare) at 25 and 37° C. ALK7 antibodies were captured on custom made FAB chip. A concentration series of ALK7-Fc comprising protein was injected over the flow cells at a flow rate of […]. To obtain kinetic rate constants the corrected data were fit to a 1:1 interaction model using BiaEvaluation software (GE Healthcare). The equilibrium binding constant KD was determined by the ratio of binding rate constants kd/ka.

- koff: 0.000367 s⁻¹
B1: L01 (antibody, V domains shown)
VH: QVQLVQSGAEVKKPGSSVKVSCKASGGTFSSYAISWVRQAPGQGLEWMGSIIPIFGTANYAQKFQGRVTITADESTSTAYMELSSLRSEDTAVYYCARDPVGARYEVFDYWGQGTLVTVSS
VL: EIVMTQSPATLSVSPGERATLSCRASQSVSSNLAWYQQKPGQAPRLLIYSASTRATGIPARFSGSGSGTEFTLTISSLQSEDFAVYYCQQANTFPLTFGGGTKVEIK
notes: Human IgG from yeast libraries; also called LOL
